Measurements as given in article PMC11737846.

Biological target: recombinant hemolysin co-regulated protein 1 variant B (rHcp1^(variant B)) of Burkholderia pseudomallei (Burkholderia pseudomallei (clinical isolate DR0089))
Assay: […]) at 10 mg/ml in PBS pH 7.2; […]

recombinant hemolysin co-regulated protein 1 variant B (rHcp1^(variant B)) of Burkholderia pseudomallei (natural protein)
stoichiometry N: 6
